Molecular target: human Nectin-4 on Nectin4-CHOK1 cells (CHO-K1 cell strain highly expressing Nectin-4) (human) (UniProt Q96NY8)
Experiment: cell-based or functional assay

human Nectin-4 on Nectin4-CHOK1 cells (CHO-K1 cell strain highly expressing Nectin-4) (human), sequence (Q96NY8 32-510 limits assumed): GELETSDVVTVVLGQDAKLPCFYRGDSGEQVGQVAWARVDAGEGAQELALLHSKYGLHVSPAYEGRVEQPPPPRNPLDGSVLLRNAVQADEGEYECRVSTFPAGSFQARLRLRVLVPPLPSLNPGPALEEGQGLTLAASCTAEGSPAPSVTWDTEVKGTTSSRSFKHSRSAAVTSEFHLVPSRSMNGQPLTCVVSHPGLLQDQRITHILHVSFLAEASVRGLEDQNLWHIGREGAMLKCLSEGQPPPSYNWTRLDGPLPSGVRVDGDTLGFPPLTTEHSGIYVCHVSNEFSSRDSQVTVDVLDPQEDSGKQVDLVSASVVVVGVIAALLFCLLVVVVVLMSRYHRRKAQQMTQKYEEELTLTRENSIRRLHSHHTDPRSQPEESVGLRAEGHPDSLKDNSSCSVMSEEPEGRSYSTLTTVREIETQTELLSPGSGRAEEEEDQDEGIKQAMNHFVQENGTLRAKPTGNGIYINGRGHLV

FITC-A signal value, 5 nM Ab + 15 nM pHrodo (pHrodo endocytosis assay, Nectin4-CHOK1 clone 3): 129
FITC-A signal value, 20 nM Ab + 60 nM pHrodo (pHrodo endocytosis assay, Nectin4-CHOK1 clone 3): 154
Substance: C25-IgG1 (IgG1 isotype negative control) (antibody)

— patent publication US20260199504A1
